Data on 21 substances can be found in patent US20030158389A1.

Usually EC50 stands for the concentration needed to bring the measured effect to its halfway point.

In test [1] the target is human C1q (Quidel, San Diego, Calif.) (human) (UniProt P02745). Nature of the test: C1q binding ELISA, antibody coated on plate, 2 µg/ml C1q. For orientation: An ELISA detects its analyte on a solid surface through an enzyme-linked reagent.
The target is the same in test [2]. Nature of the test: cell-based or functional assay.
Test [3] has the same target. Nature of the test: C1q binding ELISA, antibody coated on plate, 2 µg/ml C1q. The source holds these as a separate data set.
In test [4] the target is CD20 antigen on WIL2-S cells (UniProt P11836). Nature of the test: flow cytometry on WIL2-S cells expressing CD20. A general note: In flow cytometry, cells or beads pass a laser one at a time.
Chain of CD20 antigen on WIL2-S cells (P11836 whole entry): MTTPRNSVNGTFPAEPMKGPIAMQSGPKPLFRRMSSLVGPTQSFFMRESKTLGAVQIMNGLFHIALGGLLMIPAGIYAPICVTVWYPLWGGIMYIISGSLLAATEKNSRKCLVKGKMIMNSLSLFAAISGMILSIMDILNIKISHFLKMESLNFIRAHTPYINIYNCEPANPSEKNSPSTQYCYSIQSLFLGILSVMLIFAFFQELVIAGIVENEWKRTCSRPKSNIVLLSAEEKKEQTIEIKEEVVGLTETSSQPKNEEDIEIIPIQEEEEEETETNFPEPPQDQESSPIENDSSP

Where two headings read alike, the source gives them in different places.

Chain of human C1q (Quidel, San Diego, Calif.) (human) (P02745 23-245 limits assumed, chain 1 of 3): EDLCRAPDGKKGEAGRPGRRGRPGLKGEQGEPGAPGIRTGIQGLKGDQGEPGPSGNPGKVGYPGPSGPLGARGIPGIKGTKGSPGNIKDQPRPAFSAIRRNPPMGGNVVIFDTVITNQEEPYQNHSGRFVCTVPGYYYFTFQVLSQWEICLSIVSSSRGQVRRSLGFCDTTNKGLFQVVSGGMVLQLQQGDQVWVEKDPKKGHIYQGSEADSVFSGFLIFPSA
Chain of human C1q (Quidel, San Diego, Calif.) (human) (P02746 28-253 limits assumed, chain 2 of 3, further chain): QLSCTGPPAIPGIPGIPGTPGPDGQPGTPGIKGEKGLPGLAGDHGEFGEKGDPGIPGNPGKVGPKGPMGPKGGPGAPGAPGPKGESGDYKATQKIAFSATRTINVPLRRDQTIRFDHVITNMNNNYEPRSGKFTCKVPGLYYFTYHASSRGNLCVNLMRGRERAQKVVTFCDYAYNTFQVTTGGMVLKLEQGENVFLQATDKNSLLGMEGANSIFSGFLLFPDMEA
Chain of human C1q (Quidel, San Diego, Calif.) (human) (P02747 29-245 limits assumed, chain 3 of 3, further chain): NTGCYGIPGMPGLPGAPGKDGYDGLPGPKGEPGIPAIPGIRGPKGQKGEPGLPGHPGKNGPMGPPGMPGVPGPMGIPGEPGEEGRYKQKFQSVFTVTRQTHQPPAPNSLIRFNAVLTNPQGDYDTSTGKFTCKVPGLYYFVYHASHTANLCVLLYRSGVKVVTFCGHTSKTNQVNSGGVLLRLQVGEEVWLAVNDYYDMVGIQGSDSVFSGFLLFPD

C2B8 mutant K326A (antibody): in test [1], the concentration giving a half-maximal response (EC50) came out at 1.03 µg/mL and the percent increase in binding against wild type worked out at 30%.

Substance “C2B8 double mutant K326M-E333S (antibody)” came in with a fold better binding than wild type C2B8 in test [1] greater than 3 fold. In test [2], this substance gave a CDC, fold better than wild type C2B8 greater than 2 fold.

In test [1], C2B8 mutant E333S (antibody) showed an EC50 of 0.81 µg/mL and a fold increase in binding against wild type of 2 fold.

C2B8 mutant E333V (antibody) registered an EC50 in test [1] of 1.18 µg/mL.

On to C2B8 mutant E333G (antibody), for which the EC50 in test [1] stood at 1.14 µg/mL. The EC50 values of the last two substances are within 1.5-fold of each other.

The substance C2B8 mutant K326E (antibody) had an EC50 in test [1] of 1.08 µg/mL. The fold increase in binding against wild type in test [3] was greater than 2 fold.

Take C2B8 mutant K334A (antibody): in test [1], the EC50 was 1.07 µg/mL and the percent increase in binding against wild type was greater than 30%.

For C2B8 mutant E333A (antibody), in test [1], the EC50 worked out at 0.98 µg/mL and the percent increase in binding against wild type turned out to be 30%.

For the substance C2B8 mutant P331A (antibody), the EC50 as percentage of the wild type in test [4] stood at 103%. Also, the fold lower binding than wild type C2B8 in test [1] was found to be 60 fold.

As to C2B8 mutant K326M (antibody), the EC50 in test [1] is 0.67 µg/mL. In addition, the fold increase in binding against wild type in test [3] is greater than 2 fold.

As to C2B8 mutant K326G (antibody), the EC50 in test [1] worked out at 0.95 µg/mL.

In test [1], C2B8 mutant K326D (antibody) returned a concentration giving a half-maximal response (EC50) of 0.76 µg/mL. In test [3], this substance showed a fold increase in binding against wild type greater than 2 fold.

In turn, C2B8 mutant E318A (antibody) registered an EC50 as percentage of the wild type in test [4] of 89%. Moreover, in test [1], the percent decrease in binding against wild type C2B8 was found to be 30%. The substance further came in with a CDC, percentage of the wild type in test [2] of 108%.

Turning to “C2B8 mutant with A327 in the human IgG1 constant region changed to glycine (antibody)”, the percent increase in binding against wild type in test [1] is 50%.

Take C2B8 mutant E333Q (antibody): the EC50 in test [1] amounted to 1.52 µg/mL.

As for C2B8 mutant K326V (antibody), the EC50 in test [1] was 1.3 µg/mL.

In test [1], C2B8 mutant K326W (antibody) displayed an EC50 of 0.47 µg/mL. Besides, the fold increase in binding against wild type in test [1] is 5 fold; in test [3] it was greater than 2 fold.

Substance C2B8 mutant K320A (antibody) showed an EC50 as percentage of the wild type in test [4] of 102%. The CDC, percentage of the wild type in test [2] is 108%.

As to C2B8 mutant E333D (antibody), the EC50 in test [1] came out at 1.22 µg/mL.

In test [1], “C2B8 double mutant K326A-E333A (antibody)” registered a fold better binding than wild type C2B8 greater than 3 fold. The same substance showed a CDC, fold better than wild type C2B8 in test [2] greater than 2 fold.

As to C2B8 mutant P329A (antibody), in test [4], the EC50 as percentage of the wild type came out at 112%.
